# Test results: publication PMC8586658 (Cancer Science, 2021)
# T1: mouse IL‐2Rα on 293T cells (293Tα) (mouse, UniProt P01590 22-268)
# T1 sequence: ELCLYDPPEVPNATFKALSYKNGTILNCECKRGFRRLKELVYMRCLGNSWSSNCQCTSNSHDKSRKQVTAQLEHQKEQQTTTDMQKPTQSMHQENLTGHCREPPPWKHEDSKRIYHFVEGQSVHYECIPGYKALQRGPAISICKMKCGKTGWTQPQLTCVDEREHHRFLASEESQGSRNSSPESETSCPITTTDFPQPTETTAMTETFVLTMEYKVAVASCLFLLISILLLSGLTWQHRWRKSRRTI
# B1: Mutakine‐6 (MK‐6), IL‐2 K35A/R38A/K43A/Y45A on the MK‐0 template, fused to NanoLuc (ligand)
# chain: APASSSTKKTQLQLEHLLLDLQMILNGINNYKNPALTAMLTFAFAMPKKATELKHLQCLEEELKPLEEVLNLAQSKNFHLRPRDLISNINVIVLELKGSETTFMCEYADETATIVEFLNRWITFAQSIISTLT
# Molecular target: T1, mouse IL‐2Rα on 293T cells (293Tα)
# Assay: binding of NanoLuc fusion proteins to cells
binder,measurement,value
B1,mouse 293Tα/293T ratio,1.8 ratio
